The DeepSol protein solubility set

test: soluble on expression in E. coli; label from the status in PepcDB or PDB records

Sequence	soluble on expression in E. coli
MAEHDFETISSETLHTGAIFALRRDQVRMPGGGIVTREVVEHFGAVAIVAMDDNGNIPMVYQYRHTYGRRLWELPAGLLDVAGEPPHLTAARELREEVGLQASTWQVLVDLDTAPGFSDESVRVYLATGLREVGRPEAHHEEADMTMGWYPIAEAARRVLRGEIVNSIAIAGVLAVHAVTTGFAQPRPLDTEWIDRPTAFAARRAER	soluble
GSNRSLIVTTILEEPYVLFKKSDKPLYGNDRFEGYCIDLLRELSTILGFTYEIRLVEDGKYGAQDDVNGQWNGMVRELIDHKADLAVAPLAITCVREKVIDFSKPFMTLGISILYRKGTPIDSADDLAKQTKIEYGAVEDGATMTFFKKSKISTYDKMWAFMSSRRQSVLVKSNEEGIQRVLTSDYAFLMESTTIEFVTQRNCNLTQIGGLIDSKGYGVGTPMGSPYRDKITIAICQLQEEGKLHMMKEKWWRGNGCPS	soluble
MSLEDVIEKLRELNEPVPVPLELPEEELLVEIEEELLIGIPAEFREFLLLVSDVVYGRLEPVTVTDPHSHTYLPEVAATAWDLGVPRELIPLCEDDGSYYCVAEDGEVVLWADGDLTDESWDSVWVWARDVWLESEGHHHHHH	soluble
MGSDKIHHHHHHMPENLIIPSVDLRIGALEEYNRRQKEKAHHRQKGPKPRPCITLSREFGCEGYPVAESLLKLMPEQTGDQWVLVDKDVLDEVARRHHVSREILEALGTKNRILSQVLATFSERWKTDHEYFELLCSHIVSLAEQGNVIIVGLGGAIITHHREHCYDFRIFGSREFKIGSICQRMNLPPDKAADLIEKQQAQIDNFTREFLFEDEANPAIYDLLFNNDRMCPETMARTIADYVAGRIAAGTADKRHV	not soluble
MRSIVGDLLLLRLGDVAEGPMNQRLYRAIREAILDGAIAADTRLPATRDLAAELGIARNTVVHVYSQLQAEGYTHSRQGNGTFVTASLPDAYLASGRHARRPAIAAVRPTLSERGARIVDQVSASPYQWGAFMPGVPDLTEFPHQKFGRLFSTLWRNPHPEMLTYAYGGGLPALREALAQHLALTRSIDCDPEQIIITEGSHQAIDLATRILGGHGDLAWIENPGYWGARSVLIANGIRIEPLPVDEEGMQLPAEPVAQPPRFIFVTPSHQYPLGSVMSLARRRQLLALARSWGSWIIEDDYDSEFRFSGRPISSLQGLEPDAPVIYLGTFSKTLYPGLRVGYLVLPKALAGAFQAAHAELYREGHLVTHAVLASFIAEGHYAAHIRRMRMLYGRRRAILVNLIERRLGAQWLHPDSSDAGLHLVLDFPSGLDDKQVMQAAHARGVLTRALSRYYAEGTTPRQGLLLGYACVPENDIARKFELVLDSLAEVAQRSRA	not soluble
ASNIYRLQQAAEAAVKTGRKIAVFGRSMEKAIVNGIELGYIKVPKGTFIEPSELKNLHASEVLIMCTGSQGESMAALARIANGTHRQVTLQPGDTVIFSSSPIPGNTTSVNKLINTIQEAGVDVIHGKVNNIHTSGHGGQQEQKLMLSLIKPKYFMPVHGEYRMQKVHAGLAMDIGIPKENIFIMENGDVLALTSDSARIAGHFNAQDIYVDGNGIGDIGAAVLRDRRDLSEDGVVLAVATVDFNTQMILAGPDILSRGFIYMRESGDLIRESQRVLFNAIRIALKNKDASIQSVNGAIVNALRPFLYEKTEREPIIIPMVL	not soluble
MSLSRLILIESNKNTRGTPWISIPVRNGVFEYDFYTDHEKAYELICWDDLLNGCWYPVTFFAENGTVSFTISAIDARPPYRIETLNSLTTALRLFEAEGKDKFSFDELNARRDTLEKYGRFESEAMQALWKKFDQVKDNPEERNKLFRERDRLEESGEAFTKEAKALIKEREQLFRKKVIWETEQASQHPSLVGLFILKMKVENARKDEDVTPYLEAFQKVYASRYPEHPYTREMQMFIDNNQPKTGNRFIDFSAPDLNGNMVQLSEQIRGKVALIDLWASWCGPCRTTSKQLIPIYEKYKDRGFTVIGVAREQNSDIRMREAIRKDGYPWLNLIELNDVQQIWSKYRIPNAAGGTFLVNAQGIILAVNPTAEEVERILQKELEGHHHHHH	not soluble
MFFMYFTNYGYRLNQIKKGSDQHWLFLPGGPGLGSEYLASFCDKLTLQGTVSLVDFPKDGNNSEGQLDFVSWQEGLISLLKSLNKPILVTHSFSGMFTLNFPEIENHLSGLVLMNTTTTNSFFQHVNEMRQKHNLPDLVPAASQYHLYPSNETYKKFWDTYKHYCFTQEELPIGEQMMELFAYNNESYHYAIEHFYNDFHYKWHPQTIPTMTIASELDYICPPAIFIQDKNFQCQNVINKVIYKAGHCPWILHLEQVQKCFDEFSGMIQEINIERIL	not soluble
MGSDKIHHHHHHMKIAISGKGGVGKTTLAATLAYLFARDGYRVTAIDCDADINLPSALGVKEKPKPLSELHEIIEKRVVGPMGTYKLNPKVDDVFEEYSVYNEDGVRVLVLGTIEKGGEGCFCPENAFLRAILRHAIFKREDVLILDMEAGIEHLGRGTARGVDLLIAVVEPGTRAVETLERIEKLGRDIGIERIAVVVNKFIESERARELISGIKYPILGVIHYDQCFVRADLENVPPYTVCDLKPFEEIKRRIEEFVQ	not soluble
MSEAESVVIKGGNKDKILPLEAEEKKPIKEEKNKAVILSNWIIKYAPIVYFHPDEKCFPITVEEFLECTDVMNEKNEKFCDGKEILSGSFKDALGNQKFYLKITDTSVREGNLNSAKCYVYVRKRNKGRYLDLQYFFFYGYNGPTINIHLNKNKKNYSTSNIGENYGNWEHVTVVIDSTDGSILGAIFDQHGKSCFYDIDQLEYEKGHIVVYSALSSHASYPSAGKSVTEYDSQELGVPPVSVGIVKFELHDATDKGRRWDTSLVCQLVSYNITGTEVEEPKWMAFNGRWGKPYDLTDKDISILYQISRLPAGGKVVDSLLWRFIPYSKKNINQANGIKSKDDFNIIILEHHHHHH	not soluble
GNYENINSNPYEAPDLSADGYALGSAMNNLAGCVVSPDVNTAQFTDCLLGGPLGGYFADSNAGFTETISNFNPKDDWSRVFLKSDKIIPTLYSNLTQVKLVSQNTNDPVPYAIAQVIKVAAMHRVTDAFGPIPYSQIGANGEIATPYDSQEVTYNTFFDELNAAIATLNENSNEQLVPTADYIYKGDVKKWIRFANSLKLRLAIRIAYANPVKAQQMAEEAVNPANGGVIESNADNATWNYFETSQNPIYVATRYNQVQTSDHGGVPCLTGGDTHAAADIICYMNGYKDNRREKFFTKSEWAGQDYVGMRRGIVIPELKTTGHKYSGVNIAPTSPLYWMNAAEVAFLRAEGQAVFNFSMGGTAESFYNQGIRLSFEQWGADGVEDYLKDDVNKPTAYTDPAGTNTYQNALSNITIKWNDSADKEEKQERIIVQKWIANWQLGNEAWADFRRTGYPKLIPVKENKSGGVVDSEKGARRMPYPLDEFVSNKANVEYAIANYLHGADNMATDVWWASKK	soluble
GSHMQGQSPIKDQEMKELIRRSQEGDQEARDEIIEKNMRLVWSVVQRFLNRGYEADDLFQIGCIGLLKSVDKFDLSYDVKFSTYAVPMIIGEIQRFLRDDGTVKVSRSLKEMGNKIRKAKDELSKTRGRAPTVTEIADHLGISPEDVVLAQEAVRLPTSIHETVYENDGDPITLLDQIADADEASWFDKIALKKAIEELDERERLIVYLRYYKDQTQSEVASRLGISQVQMSRLEKKILQHIK	soluble
MNKRNWTAYYNSTKQNTLPRKSLLKAIANFDKEKINLSKSAIDLGCGAGIDVMELLRCGWSVIAIDSQLSAIDSLLSSAQELTCANKLKTIISSFEALDSLPKVNLINASFSLPFLKPVYFYKFWSVILKGLKPGGRFSGSFFGFNDFWNTRTDMTFLNREMICHLFSQFKIEYFQEEEKDEMDALGYYKHWHKFFIVAKKIALEHHHHHH	not soluble
MAHHHHHHMSSCQNTHAARLHSATSAYAGEPESWMWTPARENGDGWRSPGTGTATSATAEAALHFVWGRVLSVYAVMPLNQTWNVQGVVDAVLPPLPANGGTTAAPSPPAAPAMAPGFQLLVMAAALLSPPATATTAVAAAPSMASLHKLSLMSPADAEPVDVGELSGAFWLAALRRAWPLFQACGVSHEPMTQGSNTNITEEAASSLGGVAVGMAGSGVNLEDLRTIVLSLFLRFADDSAVASAMAAADGDGAKLCGSAIRWAEAMCSDAPATYAQ	not soluble
SLRLKLSLTPKQDFSFDKINKHTIQGFIYSLLKDTEFGEMHNQPRFKFWCFSDIFPPNDFVKGEDKYLLISSPREEFINVLYERLDNLEEVNLNNFKFEVSELKKFDLKVKNKFITGSPIVLYKDKDRGEYIKFYDDDFDLMFFVQRLQDNAVKKYKAFYNEEPVLNGFIFDRISPRVRNGRVDVYVRIAKKGREFLVVGTTWKLLEKIKIRKEERKFYKFIMDCGLGEKNSLGFGFINPIK	not soluble
SENVPFASKERADIFSMRTLIDFGGIAILHAYQSRISEYIAEKELSAMNVILKSQYDQYRNYQDSLDLIQMKYHDLKHQITALRAESDAEKRKKWIDAMEEEVSAFENMSKTGNQVLDTILAAKIFHCRKNHIQITCVADGKLLDFIHVTDLCSIFGNALDNAIEHVIMIPEAEKRLIHLTVSAKKSFVFIKIENYCEDKIQKNENDLITTTKADRQNHGFGLKSIRTVVEKYNGSVDFGVDQNWFELKILLPRVM	not soluble
MLLSLYIPPGRPIPDVLNLLRQEYSIAQNIKLKRTRDAVTSAIQSAIDRLTQIPKVPDNGLVIFCGENFETEESKCFVFSPPEKVTIFFYRTDKYFHTEFLEDMIEENDVFGLIIVERDYATIGILKGTRIEVLDEFEGFVPGKHMMGGQSQRRIDRIIEEMYANFLKEVGEKANSYLLPYLESGKLKGILLGGPGYAKKDFYDGDYLDYRLKKLVLLPLIDIPDQGDAGLKELVMKAQDILKNQKYVQVQNLLEELKYHIAKDDGLVVYGIEEIRKALHMGAVDSLVIYDEPNSELEKLSQEAENYGTKVYVVGDELPDAEWVKKTFGGAIGKLRYKIY	soluble
MAEVITVKQTNMENIYECEFNDGSFRLCTRNLVPNFNVYGERLIKYEGVEYREWNAFRSKLAGAILKGLKTNPIRKGTKVLYLGAASGTTISHVSDIIELNGKAYGVEFSPRVVRELLLVAQRRPNIFPLLADARFPQSYKSVVENVDVLYVDIAQPDQTDIAIYNAKFFLKVNGDMLLVIKARSIDVTKDPKEIYKTEVEKLENSNFETIQIINLDPYDKDHAIVLSKYKG	soluble
MGSDKIHHHHHHLTLSIEHLTGGYTQTPVIKDINFEVKNGELLGLIGLNGAGKSTTINHVIGLMRPMKGKIILDEIDLEQNPTQYKTKLAYIPELPILYDELTLKEHIELTIKAYEMNSEKAWQQAHKLLKTFRLENKLDWFPANFSKGMRQKVMIVCAFITDAELFVVDEPFLGLDPLAIDDLLKVINEKKQQGASILMSTHVLDTAEKYCDRFALLNEGELKAVGTLADFQKQFNLPNSSLNDIYLTIAKGERDE	not soluble
MATKKATMIIEKDFKIAEIDKRIYGSFIEHLGRAVYGGIYEPGHPQADENGFRQDVIELVKELQVPIIRYPGGNFVSGYNWEDGVGPKEQRPRRLDLAWKSVETNEIGLNEFMDWAKMVGAEVNMAVNLGTRGIDAARNLVEYCNHPSGSYYSDLRIAHGYKEPHKIKTWCLGNEMDGPWQIGHKTAVEYGRIACEAAKVMKWVDPTIELVVCGSSNRNMPTFAEWEATVLDHTYDHVDYISLHQYYGNRDNDTANYLALSLEMDDFIRSVVAIADYVKAKKRSKKTIHLSFDEWNVWYHSNEADKLIEPWTVAPPLLEDIYNFEDALLVGCMLITLMKHADRVKIACLAQLVNVIAPIMTEKNGPAWKQTIYYPFMHASVYGRGVALHPVISSPKYDSKDFTDVPYLESIAVYNEEKEEVTIFAVNRDMEDALLLECDVRSFEDYRVIEHIVLEHDNVKQTNSAQSSPVVPHRNGDAQLSDRKVSATLPKLSWNVIRLGKR	soluble
